Results taken from PMC9529537 (The Innovation, 2022).

Target: yellow fever virus soluble envelope (E) protein (Yellow fever virus, strain CNYF01/2016 …)
Test: crystal structure

B1: YD6 Fab (Fab, V domains shown)
VH: EVQLVESGGGLVKPGGSLRLSCAASGFIFSDYYMMWIRQAPGKGLEWISYISSSGSQIYYTESVKGRFTISRDNGKNLLYLQMNSLRGEDTALYYCATETGWRIDTWGQGTLVTVSS
VL: QAVLTQPASVSGSPGQSITISCTGTGSNIETYNLVSWYQRHPGKAPKLILYEVSERPSGVSNRFSGSKSGNTASLTISGLQAEDEADYFCCSYADTNIFWVFGGGTHLTVL
binding result: binds

B2: YD6 scFv (scFv, V domains shown)
VH: B1 VH
VL: B1 VL
binding result: binds

B3: YD73 Fab (Fab, V domains shown)
VH: QVQLVQSGAEVKKPGASVKVSCKASGYTFIAYGISWVRQAPGQGLEWMGWISAHNGNTNYAQKFQGRVTVTTDTTTRTAFMELRNLRSDDTAVYYCARAPWEYNYRSSGYYDSPYWGQGTLVTVSS
VL: EIVLTQSPGTLSLSPGERATLSCRASQSVVSTYLAWYQQKPGQAPRLLIYDTSTRATGIPDRFSGSGSGTDFTLTISRLEPEDFAVYYCQHYDSSPPWTFGQGTKVEIK
binding result: binds
